From publication PMC4486061 (Journal of Structural Biology, 2010)
Values joined by “and” are separate entries in the source; they are usually repeats but may differ in a detail not shown here. Equal values may be shown once.

Molecular target: the molecule itself
Test: PFO-PAGE

B1: SARS-CoV M protein endodomain, residues 107-221 (M_(107-221)) (domain or fragment)
chain: SMWSFNPETNILLNVPLRGTIVTRPLMESELVIGAVIIRGHLRMAGHSLGRCDIKDLPKEITVATSRTLSYYKLGASQRVGTDSGFAAYNRYRIGNYKLNTDHAGSNDNIALLVQ
Which “stoichiometry N” value does the source give for B1 here?
The value was 2 and 4 and 6.
